Measurements taken from patent US20100204100A1, “BIOLOGICAL AGENTS ACTIVE IN CENTRAL NERVOUS SYSTEM” (THE JOHNS HOPKINS UNIVERISTY, priority 2007, published 2010).
Where a chain is given by its changes, count along the chain named. In names and notes the source's numbering stands. Entries after “also recorded” stand apart in the source; their conditions may differ.

B1: PSD-95 PDZ2: Control peptide containing the same sequences as Tat-PSD-95 PDZ2 but without Tat PTD (protein)
chain: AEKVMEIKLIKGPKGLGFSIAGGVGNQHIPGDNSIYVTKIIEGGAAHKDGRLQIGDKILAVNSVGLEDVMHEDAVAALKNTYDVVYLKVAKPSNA
B2: Tat-PSD-95 PDZ2: His-tagged fusion peptide: HIV Tat minimal transduction domain (residues 47-57) fused to the second PDZ domain of PSD-95 (protein)
chain: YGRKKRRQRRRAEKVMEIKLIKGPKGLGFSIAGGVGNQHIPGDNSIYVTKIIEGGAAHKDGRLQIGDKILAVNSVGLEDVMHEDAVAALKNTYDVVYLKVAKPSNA
B3: mutated Tat-PSD-95 PDZ2: Control fusion peptide: Tat-PSD-95 PDZ2 with three sites critical for NMDAR/PSD-95 interaction mutated (K165T, L170R and H182L) (protein)
chain: B2 chain with K22T, L27R, H39L

Experiments:
[1] = test system: interaction between NR2A/2B and PSD-95; test: In vivo binding assay (co-immunoprecipitation) from spinal cord homogenates of treated mice; parameters: species or system mouse; details: 8 mg/kg intraperitoneal
Method: In Vitro and In Vivo Binding Assays. […] Membrane-bound proteins from the spinal lumbar enlargement segments were extracted as described previously (Tao, et al., 2003a). For in vitro binding experiments (GST pull-down), the solubilized membrane fraction and GST fusion peptide were first preincubated with different concentrations of Tat-PSD-95 PDZ2 at room temperature for 30 min. Then the membrane fraction was mixed with the GST fusion peptide at room temperature for 1 h. The resin was washed five times with washing buffer (PBS plus 500 mM NaCl and 0.1% Triton X-100) and then boiled in 1×SDS-PAGE sample buffer to elute the bound proteins. After being separated by electrophoresis, the proteins were detected by immunoblotting with anti-GST antibody (Santa Cruz Biotechnology, Santa Cruz, Calif.) and anti-NR2B antibody (Upstate Biotechnology, Lake Placid, N.Y.). For in vivo binding experiments (co-immunoprecipitation), 5 μg of the affinity-purified rabbit NR2A/2B antibody (Chemicon, Temecula, Calif.) was incubated with 100 μl of protein A-Sepharose slurry for 1 h, and the complex was spun down at 2000 rpm for 4 min. The solubilized membrane fraction (500 μg) from the different groups of treated mice as mentioned-above then was added to the Sepharose beads, and the mixture was incubated for 2-3 h at 4° C. The mixture was washed once with 1% Triton X-100 in immunoprecipitation buffer [containing (in mM): 137 sodium chloride, 2.7 potassium chloride, 4.3 disodium hydrogen phosphate, 1.4 potassium dihydrogen phosphate, 5 ethylene glycol tetraacetic acid, 1 sodium vanadate, 10 sodium pyrophosphate, 50 sodium fluoride, 0.1 phenylmethylsulfonyl fluoride, and 20 U/ml Trasylol], twice with 1% Triton X-100 in immunoprecipitation buffer plus 300 mM sodium chloride, and three times with immunoprecipitation buffer. The proteins were separated by SDS-PAGE and detected by NR2A/2B or PSD-95 antibody (Upstate Biotechnology, Lake Placid, N.Y.). As a positive control (input), 50 μg of the solubilized membrane fraction was loaded onto the gel. […]

[2] = test system: threshold for halothane anesthesia; test: Determination of halothane RREC50 (righting reflex); format: in vivo, mouse; details: mice; for effect on halothane RREC50: intraperitoneal injection, dose series; for halothane RREC50: mean±S.E.M., vehicle 0.48±0.02
Method: The purified fusion peptides at the indicated amounts were injected intraperitoneally into mice in 300 μl of phosphate-buffered saline and 10% glycerol. The mice were given Tat-PSD-95 PDZ2 or control peptide (mutated Tat-PSD-95 PDZ2 or PSD-95 PDZ2 without Tat) 4 h before MAC measurement and righting reflex testing. All the animals were assigned randomly to experimental groups consisting of 6-8 animals each. Western blot analysis was then used to verify the CNS delivery of these fusion peptides after intraperitoneal injection. Following the measurement of MAC, the halothane concentration was halved for 10 min and the animal turned on its back to test the righting reflex defined as a return onto all four paws within 1 min^20-22. […] RREC50 was calculated for each mouse as the mean value of the anesthetic concentrations that just permitted and just prevented the righting reflex.

[3] = test system: CFA-induced inflammatory pain behaviors; test: CFA-induced inflammatory pain behaviors, paw withdrawal threshold (von Frey filaments); format: in vivo, mouse; details: vs vehicle
Method: Intrathecal Injection of Tat Fusion Peptides. Intrathecal injection was performed in unanesthetized mice as previously described (Hylden and Wilcox, 1980; Tao, et al., 2003b; Tao, et al., 2004). In brief, the mouse was held firmly by the pelvic girdle in one hand, while a 10-μl Luer tip syringe with a 30 gauge 0.5-inch needle was held in the other hand at an angle of about 20° above the vertebral column. The needle was inserted into the tissue to one side of the L5 or L6 spinous process so that it slipped into the groove between the spinous and transverse processes. The needle was then moved carefully forward to the intervertebral space as the angle of the syringe was decreased to about 10°. […] The injection volume was 5 μl. The mice, assigned randomly to the experimental groups of 6-8, were given intrathecally Tat-PSD-95 PDZ2 or control peptide (mutated Tat-PSD-95 PDZ2 or PSD-95 PDZ2 without Tat PTD) 30 min before behavioral testing. Behavioral Analysis. Mechanical sensitivity of the mice was measured with von Frey filaments (Stoelting, Wood Dale, Ill.) as described previously (Yang and Gereau, 2003). Mice were placed in Plexiglas testing boxes with a 1×1 cm^2 wire-mesh grid floor and habituated for 3 h before experiments. Each von Frey filament was applied to the mouse hind paw in ascending order until it bent at approximately 30° for about 3 s. The smallest filament that evoked a paw withdrawal response was taken as the mechanical threshold (paw withdrawal threshold). Similar sites were selected for measuring mechanical thresholds in all tested animals, and the thresholds were measured at approximately the same site throughout the experiment for each individual animal. Two to three measurements were made before CFA or fusion peptides injection, and the average was calculated as the baseline. Established inflammatory pain behaviors were induced by intraplantar injection of CFA solution (20 μl, 1 mg/ml). To observe the effect of Tat-PSD-95 PDZ2 on the development of CFA-induced established inflammatory pain, the mice were given intraperitoneally Tat-PSD-95 PDZ2 or control peptide (mutated Tat-PSD-95 PDZ2 or PSD-95 PDZ2 without Tat) 2 h before CFA injection or intrathecally these peptides 1.5 h after CFA injection (development protocol); on the other hand, to observe the effect of Tat-PSD-95 PDZ2 on the maintenance of CFA-induced established inflammatory pain, the mice were given intraperitoneally these peptides 20 h after CFA injection or intrathecally these peptides 23.5 h after CFA injection (maintenance protocol). Behavioral measurements were conducted 2 h after CFA injection for the “development protocol” and 24 h after CFA injection for the “maintenance protocol”. The effect of Tat fusion peptide on CFA-induced established inflammatory pain behaviors was expressed as % of baseline.

[4] = intraperitoneal, Tat-PSD-95 PDZ2 2, 4, 8 mg/kg, control peptides 8 mg/kg, development and maintenance phases
[5] = intrathecal, Tat-PSD-95 PDZ2 2.5, 5, 10 μg/5 μl, control peptides 10 μg/5 μl

Molecule	effect on interaction between NR2A/2B and PSD-95, co-immunoprecipitation [1]	effect on halothane RREC50 compared to vehicle-treated group ([2]; 8 mg/kg intraperitoneal)	effect on halothane RREC50 [2]	effect on CFA-induced decrease of paw withdrawal threshold, ipsilateral side [3, 4]	effect on CFA-induced decrease of paw withdrawal threshold, ipsilateral side [3, 5]	halothane RREC50 ([2]; 2 mg/kg intraperitoneal)	halothane RREC50 ([2]; 4 mg/kg intraperitoneal)	halothane RREC50 ([2]; 8 mg/kg intraperitoneal)	effect on halothane RREC50 compared to vehicle-treated group ([2]; two higher doses (4 and 8 mg/kg) intraperitoneal)
B1	neither mutated Tat-PSD-95 PDZ2 (8 mg/kg) nor PSD-95 PDZ2 (8 mg/kg) had an effect	no effect	no effect	no effect	no effect	–	–	–	–
B2	markedly disrupted; also recorded: markedly blocked	–	dose-dependently reduced	significantly inhibited; also recorded: dose-dependently inhibited	significantly inhibited; also recorded: dose-dependently inhibited	0.45±0.03	0.37±0.03	0.18±0.02	significantly reduced
B3	no effect; also recorded: neither mutated Tat-PSD-95 PDZ2 (8 mg/kg) nor PSD-95 PDZ2 (8 mg/kg) had an effect	no effect	no effect	no effect	no effect	–	–	–	–
